According to the RNAGym collection of RNA variant scans (doi:10.1073/pnas.2313332121):
Fewer inactive variants are shown than the library holds.

B1: TPR 5TU (parent)
chain: GGAUCUUCUCGAUCUAACAAAAAAGACAAAUCUGCCACAAAGCUUGAGAGCAUCUUCGGAUGCAGAGGCGGCAGCCUUCGGUGGCGCGAUAGCGCCAACGUUCUCAACUAUGACACGCAAAACGCGUGCUCCGUUGAAUGGAGUUUAUCAUG

Variants of: B1
Experiment: polymerase ribozyme fitness, log enrichment relative to wild type (log ratio); higher = more active; in vitro selection for triplet polymerase activity
Summary of the method: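 For each subunit of a heterodimeric triplet polymerase ribozyme, a mutant library was built by PCR and transcribed, then taken through a single in vitro selection round in triplicate. Selection involved annealing to a biotinylated primer, the partner subunit and triplets, incubation frozen at −7 °C, gel excision of extended constructs, capture on streptavidin beads and RT-PCR. Genotypes were retained after Illumina sequencing of inputs and outputs only with ≥10 input reads and ≥1 read in each output. Fitness is defined as the logarithm of a genotype's enrichment relative to wild-type enrichment, using inverse-variance-weighted averages across replicates, with the logarithm taken to base 2.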

Variant	polymerase ribozyme fitness (log ratio)
GGAUCUUCUCGAUCUAACAAAAAAGACAAAUCUGACACAAAGCAUGAGAGCAUCUUCGGAUGCAGAGGCCGCAGCUUUCGGUGGCGCGAUAGCGCCAACGUUGUCAACUAUGACACGCAAAACGCGUGCUCCGUUGAAUGGAGUGUAUCAUG [C35A U44A G70C C76U C103G U145G]	≤ -4.2
GGAUCUUCUCGAUCUAACAAAAAAGACAAAUCUGACACAAAGCUUGAGAGCAUCUCCGGAUGCAGAGGCGGCAGCCUUCGGAGGCGCGAUAGCGCCAACGUUCUCAACUAUGACACGCAAAACGCGUGCUCCGUUGAAUGGAGUUUAUCAUG [C35A U56C U82A]	-3.49
GGAUCUUCUCGAUCUAACAAAAAAGACAAAUCUGACACAAAGCUUGAGAGCAUCUUCGGAUGCAGAGGCGGCAGCCUUCGGUGGCGCGAUAGCGCCAACGUUCUCAACUAUGACACGCAAAACGCAUGCUCCGUUGAAUGGAGUUUAUCAUG [C35A G126A]	-3.51
GGAUCUUCUCGAUCUAACAAAAAAGACAAAUCUGACACAAAGCUUGAGAGCAUCUUCGGAUGCAUAGGCGGCAGCCUUCGGUCGAGCGAUAGCGCCAACGUUCUCAACUAUGACACGCAAAACACGUGCUCCGUUGAAUGGAGUUUAUCAUG [C35A G65U G83C C85A G124A]	≤ -4.2
GGAUCUUCUCGAUCUAACAAAAAAGACAAAUCUGACACAAAGCUUGAGAGCAUCUUCGGAUGCAGAGGCGGCAGCCUUCGGUGGCGCGAUAGCGGCAACGUUCUGGACUAUGACACGCAAAACGCGUGCUCCGUUGAAUGAAGUUUAUCAUG [C35A C95G C105G A106G G141A]	≤ -4.2
GGAUCUUCUCGAUCUAACAAAAAAGACAAAUCUGACACAAAGCUUGAGAGCAUCUUCGGAUGCAGAGGCGGCAGCCUUCGGUGGCGCGAUAGCGCCAACGUUCUCAACUAUGACACGCAAAACGCGUGCUCCGUUGAAUGGAGUUAAUCAUG [C35A U146A]	-3.32
GGAUCUUCUCGAUCUAACAAAAAAGACAAAUCUGGCACAAAGCUUGAGAGCUACUACGGAUGCAGAGGCGGCAGCCUUCGGUGGCGCGAUAGGGCUAACGUUCUGAACUAUGACACGCAAAACGCGUGCUCCGUUGAAUGGAGUUUAUCAUA [C35G A52U U53A U56A C93G C96U C105G G152A]	≤ -4.2
GGAUCUUCUCGAUCUAACAAAAAAGACAAAUCUGACACAAAGCUUGAGAGCAUCUUCGGAUGCAGAGGCGGCAGCCUUCGGUGGCGCGAUAGGGCCACUGUUCUCAACUAUGACACGCAAAACGCGUGCUCCGUUGAAUGCAGUUUAUCAUG [C35A C93G A98C C99U G141C]	≤ -4.2
GGAUCUUCUCGAUCUAACAAAAAAGACAAAUCUGACACAAAGCUUGAGAGCAUCUUCGGAUGCAGAGGCGGCAGCCUUCGGUGGCGCGAAAGCGUCAACGUACUCAACUAUGACACGCAAAACGCGUGCUCCGUUGAAUGGAGUUUAUCAUG [C35A U90A C95U U102A]	≤ -4.2
GGAUCUUCUCGAUCUAACAAAAAAGACAAAUCUGACACAAAGCUUGAGAGCAUCUUCGGAUGCAGAGGCGGCAGCCUUCGGUGGCGCGAUAGCGACAACGUUCUCAGCUAUGACACGCAAAACGCGUGCUCCGUUGAAUGGAUUUUAUCAUG [C35A C95A A107G G143U]	-3.95
GGAUCUUCUCGAUCUAACAAAAAAGACAAAUCUGACACAAAGCUUGAGAGCAUCUUCGGAUGCAGAGGCGGCAGCCUUCGGUGGCGCGAUAGCGCCAACGUUCUCAACUAUGACACGCAAAACGCGUGCUCCGUUGAAUGGAGGUUAUCAAG [C35A U144G U151A]	≤ -4.2
GGAUCUUCUCGAUCUAACAAAAAAGACAAAUCUGACACAAAGCUUGAGAGCAUCUUCGGAUGCAGAGGCGGCAGCCUUCGGUGGCGUGAUAGCGCCAACGUUCUCAACUAUGACACGCAAAACGCGUGCUCCGUUGAAUGGAGUUUAUCAUG [C35A C87U]	-4.03
GGAUCUUCUCGAUCUAACAAAAAAGACAAAUCUGACACAAAUCUUGAAAGCAUCUUCGGAUGCAGAGACGGCAGCCUUCGGUGGCGCGAUAGCGCCAACGUUCUCCACUAUGACAUGCAUAACGCGUGCUCCGUUGAAUGAAGUUUAUCAUG [C35A G42U G48A G68A A106C C116U A120U G141A]	≤ -4.2
GGAUCUUCUCGAUCUAACAAAAAAGACAAAUCUGACACAAAGCUUGAGAGCAUCUUCUGAUGCAGAGGCGGCAGCCUUCGGUGGCGCGAUAGCGCCAACGUUCUCAACUAUGACACGCAAAACGCGUGCUCCGUUGAAUGGAGUUUAUCAUG [C35A G58U]	-2.81
GGAUCUUCUCGAUCUAACAAAAAAGACAAAUCUGACACAAAGCUUGAGAGCAUCUUCGGAUGCAGAGGCGGCAGCCUUCGGUCGCGCGAUAGCGCCAACGUUCUCAACUAUGACACGCAAAACGCGUGCUCCGUUGAAUGGAGUUUAUCAUG [C35A G83C]	-3.93
GGAUCUUCUCGAUCUAACAAAAAAGACAAAUCUGACACAAAGCUUGAGAGCAUCUUCGGAUGCAGAGGCGGCAGCCUUCGGUUGCGCGAUAGCGCCAACGUUCUCAACUAUGACACGCAAAACGCGUGCUCCGUUGAAUGGAGUUUAUCAUG [C35A G83U]	≤ -4.2
GGAUCUUCUCGAUCUAACAAAAAAGACAAAUCUGACACAAAGCUUGAGAGCAUCUUCGGAUGCAGAGGCGGCAGCCUUCGGUGGCGCGAUAGCGCCAACGCUCUCAACUAUGACACGCAAAACGCGUGCUCCGUUGAAUGGAGUUUAUCAUG [C35A U101C]	-3.87
GGAUCUUCUCGAUCUAACAAAAAAGACAAAUCUGGCACAAAGCUUGAGAGCAUCUUCGGCUGCAGAGGCGGCAGCCUUCGGUGGCGCGAUAGCGCCAACGUUCUCAACUAUGACACGCAAAACGCGUGCUCCGUUGAAUGGAGUUUAUCAUG [C35G A60C]	-3.99
GGAUCUUCUCGAUCUAACAAAAAAGACAAAUCUGACACAAAGCUUGAGAGCAUCUUCGGAUGCAGAGGCGGCAGCCUUCGGUGGCGCGAUAGCGCCAACGUUCUCAAGUAUGACAAGCAAAACGCGUGCUCCGUUGAAUGGUGUUUAUCAUG [C35A C108G C116A A142U]	≤ -4.2
